Data: patent US20260166140A1, “Combinations Involving Epidermal Growth Factor Receptor Tyrosine Kinase Inhibitors For the Treatment of Cancer” (AstraZeneca AB, priority 2022, published 2026)

Columns and labels:
[1] = system: MEDI-PANC-08^LUC PDX model; assay: Orthotopic luciferase expressing pancreatic PDX model efficacy; type: in vivo, mice; settings: orthotopic MEDI-PANC-08^LUC; RAA2/B09 ADC 2 and 3 mg/kg Q1W×4; Gemcitabine 75 mg/kg; isotype control 3 mg/kg Q1W×4
Protocol: The luciferase expressing PDX model (MEDI-PANC-08^LUC) was grown subcutaneously in NSG seed mice and at a volume of 800-1200 mm^3 the tumors were harvested and cut into fragments of approximately 2 mm^3. The tumor fragments were subsequently sutured to the pancreas of NSG mice (Day Zero). Luciferase signal was determined weekly using the IVIS Spectrum In vivo Imaging system. Briefly, 10 minutes prior to imaging, 200 ul of luciferin dissolved in DPBS (15 mg/ml) was injected intra-peritoneally (i.p.). The mice were anesthetized under 3% isoflurane, laid on their right side and luminescence measured. Fourteen days after tumor implant, when luminescent signal was clearly detectable, the mice were randomized into their respective groups based on the luminescence. […] Luminescence was measured weekly. Study endpoints included body weight loss, deterioration of body condition and lethargy. Data were analyzed using the Living Image software (Perkin Elmer) and plotted as Average Radiance [p/s/cm2/sr] against time.

[2] = molecular target: Cynomolgus monkey EGFR; assay: SPR (BIAcore T200) antibody capture kinetics; type: binding
Protocol: (§1) Mouse anti-human IgG was immobilized on a CM4 sensor chip with a final surface density of ˜2000 resonance units (RUs). A reference flow cell surface was also prepared on this sensor chip using identical immobilization protocol. Test and control article antibodies were prepared at 5-20 nM in instrument buffer (HBS-EP buffer; 0.01M HEPES, pH 7.4, 0.15M NaCl, 3 mM EDTA, and 0.005% P-20), along with 3-fold serial dilutions of purified EGFR (0.27-200 nM human, 0.4-900 nM cyno, and 4-1000 nM murine) or cMET proteins (0.27 to 66 nM human and 0.27-22 nM cyno) in instrument buffer. A sequential approach was utilized for kinetic measurements. Antibodies were first injected over the capture surface, at a flow rate of 10 μL/minute. Once the binding of the captured antibody stabilized, a single concentration of the analyte was injected over both capture and reference surfaces, at a flow rate of 75 μL/minute. The resulting binding response curves yielded the association phase data. Following the injection of analyte, the flow was then switched back to instrument buffer for 15 minutes to permit the collection of dissociation phase data, followed by a 1-minute pulse of 10 mM glycine, pH 1.5, to regenerate the antibody-captured surface on the chip. Binding responses against test and control article antibodies were recorded from duplicate injections of each concentration of analyte. In addition, several buffer injections were interspersed throughout the injection series. Select buffer injections were used along with the reference cell responses to correct the raw data sets for injection artifacts and/or nonspecific binding interactions, commonly referred to as “double referencing”. Corrected binding data were globally fit to a 1:1 binding model (Biacore T200 Evaluation software 2.0, GE Healthcare, Pittsburgh, PA).

[3] = system: Cynomolgus monkey cMET; assay: SPR (BIAcore T200) antibody capture kinetics; type: binding
Sequence of Cynomolgus monkey cMET (as listed by the source): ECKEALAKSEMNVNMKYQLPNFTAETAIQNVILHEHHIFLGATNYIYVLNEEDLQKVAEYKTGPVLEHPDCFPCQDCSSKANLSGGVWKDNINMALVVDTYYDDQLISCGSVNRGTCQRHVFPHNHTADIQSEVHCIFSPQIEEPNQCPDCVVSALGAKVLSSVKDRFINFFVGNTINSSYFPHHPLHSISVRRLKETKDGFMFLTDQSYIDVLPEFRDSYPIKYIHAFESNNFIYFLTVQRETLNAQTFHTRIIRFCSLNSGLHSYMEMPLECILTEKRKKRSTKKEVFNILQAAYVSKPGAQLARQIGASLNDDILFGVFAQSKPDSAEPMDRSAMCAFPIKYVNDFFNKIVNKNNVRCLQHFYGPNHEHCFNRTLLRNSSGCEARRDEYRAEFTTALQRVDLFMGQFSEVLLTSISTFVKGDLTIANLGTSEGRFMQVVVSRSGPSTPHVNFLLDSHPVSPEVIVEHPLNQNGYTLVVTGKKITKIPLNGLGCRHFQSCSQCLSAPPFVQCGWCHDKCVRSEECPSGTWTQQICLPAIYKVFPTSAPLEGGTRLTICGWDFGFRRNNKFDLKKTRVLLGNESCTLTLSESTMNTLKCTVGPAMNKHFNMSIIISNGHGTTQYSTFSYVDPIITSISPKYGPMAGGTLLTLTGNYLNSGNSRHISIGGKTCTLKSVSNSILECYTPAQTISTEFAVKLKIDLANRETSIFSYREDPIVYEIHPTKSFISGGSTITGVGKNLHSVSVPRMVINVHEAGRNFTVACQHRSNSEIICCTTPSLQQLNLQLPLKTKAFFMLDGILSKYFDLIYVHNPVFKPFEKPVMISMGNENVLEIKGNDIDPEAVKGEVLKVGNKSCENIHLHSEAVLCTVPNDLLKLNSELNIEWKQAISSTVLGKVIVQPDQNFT
Protocol: as §1

[4] = molecular target: T1, Human EGFR (Homo sapiens, UniProt P00533); assay: SPR (BIAcore T200) antibody capture kinetics; type: binding
Protocol: as §1

[5] = molecular target: T2, Human cMET (Homo sapiens, UniProt P08581); assay: SPR (BIAcore T200) antibody capture kinetics; type: binding
T2 sequence (P08581 25-932): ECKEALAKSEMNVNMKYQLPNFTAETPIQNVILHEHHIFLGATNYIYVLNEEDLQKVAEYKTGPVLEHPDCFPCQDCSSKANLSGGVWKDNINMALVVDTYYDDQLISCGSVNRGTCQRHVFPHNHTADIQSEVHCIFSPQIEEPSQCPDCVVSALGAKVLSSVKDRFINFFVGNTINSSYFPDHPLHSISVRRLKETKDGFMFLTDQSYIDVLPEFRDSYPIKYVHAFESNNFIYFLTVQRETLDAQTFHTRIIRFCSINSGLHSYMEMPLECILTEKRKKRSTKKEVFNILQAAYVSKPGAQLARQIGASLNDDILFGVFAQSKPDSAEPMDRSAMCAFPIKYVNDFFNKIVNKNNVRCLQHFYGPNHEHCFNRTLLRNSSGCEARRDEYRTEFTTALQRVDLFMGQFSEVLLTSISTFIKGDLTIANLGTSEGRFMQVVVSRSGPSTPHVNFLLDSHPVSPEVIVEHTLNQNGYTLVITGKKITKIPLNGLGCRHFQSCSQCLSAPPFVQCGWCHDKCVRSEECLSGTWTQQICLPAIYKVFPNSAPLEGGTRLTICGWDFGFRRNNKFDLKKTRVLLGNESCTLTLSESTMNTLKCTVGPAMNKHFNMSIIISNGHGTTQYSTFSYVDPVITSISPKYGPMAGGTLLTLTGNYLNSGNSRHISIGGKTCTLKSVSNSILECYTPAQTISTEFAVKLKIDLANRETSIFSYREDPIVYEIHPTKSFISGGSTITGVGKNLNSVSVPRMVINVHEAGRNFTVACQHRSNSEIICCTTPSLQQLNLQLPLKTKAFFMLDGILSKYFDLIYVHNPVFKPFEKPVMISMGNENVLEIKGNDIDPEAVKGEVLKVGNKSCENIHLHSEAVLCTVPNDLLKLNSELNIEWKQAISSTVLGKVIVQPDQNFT
Protocol: as §1

[6] = molecular target: T3, Mouse EGFR (Mus musculus, UniProt Q01279); assay: SPR (BIAcore T200) antibody capture kinetics; type: binding
T3 construct: purchased SinoBiological 51091-M08H
Protocol: as §1

[7] = molecular target: T4, Mouse cMET (Mus musculus, UniProt P16056); assay: SPR (BIAcore T200) antibody capture kinetics; type: binding
T4 construct: purchased SinoBiological 50622-M08H
T4 sequence (P16056 25-929 limits assumed): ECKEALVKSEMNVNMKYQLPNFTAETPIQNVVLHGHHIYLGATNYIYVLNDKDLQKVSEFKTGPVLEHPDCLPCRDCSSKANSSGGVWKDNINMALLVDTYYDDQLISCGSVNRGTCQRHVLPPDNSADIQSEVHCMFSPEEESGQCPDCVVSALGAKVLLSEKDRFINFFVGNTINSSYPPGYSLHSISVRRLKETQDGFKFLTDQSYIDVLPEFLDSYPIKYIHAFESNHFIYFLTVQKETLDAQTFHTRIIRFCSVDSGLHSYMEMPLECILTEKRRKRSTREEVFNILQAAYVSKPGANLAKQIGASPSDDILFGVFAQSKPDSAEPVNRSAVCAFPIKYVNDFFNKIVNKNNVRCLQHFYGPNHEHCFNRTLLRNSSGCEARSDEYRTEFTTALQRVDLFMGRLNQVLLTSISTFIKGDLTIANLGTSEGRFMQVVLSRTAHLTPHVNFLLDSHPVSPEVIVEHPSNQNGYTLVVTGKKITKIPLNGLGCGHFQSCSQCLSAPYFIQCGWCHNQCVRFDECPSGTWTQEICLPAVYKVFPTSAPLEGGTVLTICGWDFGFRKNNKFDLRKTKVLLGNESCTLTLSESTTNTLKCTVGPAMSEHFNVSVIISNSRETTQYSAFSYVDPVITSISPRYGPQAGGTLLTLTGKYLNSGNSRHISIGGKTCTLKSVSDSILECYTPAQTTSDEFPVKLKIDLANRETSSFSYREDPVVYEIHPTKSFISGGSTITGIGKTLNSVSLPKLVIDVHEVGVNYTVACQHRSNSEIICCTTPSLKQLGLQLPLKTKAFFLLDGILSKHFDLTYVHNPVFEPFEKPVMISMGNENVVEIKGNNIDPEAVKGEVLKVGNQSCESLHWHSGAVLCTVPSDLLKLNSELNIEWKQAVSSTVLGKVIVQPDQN
Protocol: as §1

[8] = system: Cynomolgus monkey cMET; assay: ELISA species cross reactivity; type: binding
Protocol: (§2) Specificity for EGFR and cMET species paralogs and closely related family members was determined by ELISA. Briefly, antigen solutions were prepared in PBS at 1 μg/mL and 50 microliters was coated onto half area ELISA assay plates. Plates were washed and blocked with 1% BSA in PBS containing 0.005% Tween-20 (PBS-T) for one hour at room temperature. The wells were washed 4 times in PBS-T. As set out in FIG. 3, the primary antibodies used where: R374 (a non-binding IgG1 isotype control antibody), B09 (anti-cMET antibody), QD6 (anti-EGFR antibody), RAA22 (anti-EGFR antibody), QD6/B09 (bispecific EGFR/c-MET DuetMAb), RAA22/B09 (bispecific EGFR/c-MET DuetMAb), PaniX (anti-EGFR antibody), MetMab (anti-cMET antibody) and Mab11311 (anti-HER4 antibody). Wells were incubated with 50 microliters of the indicated primary antibodies diluted in PBS-T in a 1:3 dilution series, starting at 10 μg/mL and ending at 0.002 μg/mL, except for the HER4 binding mAb control, MAB1131, for which the series started at 1 μg/mL. The wells were washed 4 times in PBS-T, then 50 μl of goat anti-human Fab HRP-labeled secondary antibody, diluted 1:5000 in PBS-T, was added to each well and incubated for one hour at room temperature. […] 50 microliters of TMB stop solution was added to all wells and the absorbance was read at 450 nm on a SpectraMax M5 microplate reader. Data were analyzed in the SoftMax Pro 5 software and plotted using GraphPad Prism 7 graphing software.
(§3) To determine the species cross reactivity, ELISA assays were carried out as described above. […] There was no detectable binding of any of the antibodies to mouse cMET.

[9] = molecular target: T2, Human cMET; assay: ELISA species cross reactivity; type: binding
Protocol: as §2, §3

[10] = molecular target: Ron (CD136) (Homo sapiens, UniProt Q04912); assay: ELISA family specificity; type: binding
Protocol: as §2

[11] = system: Semaphorin 3a; assay: ELISA family specificity; type: binding
Protocol: as §2

[12] = molecular target: human cMET receptor with the HGF ligand (Homo sapiens, UniProt P08581); assay: HGF:cMET HTRF ligand receptor inhibitory binding assay; settings: purified IgG2 antibodies
Sequence of human cMET receptor with the HGF ligand (P08581 25-932 limits assumed): as the sequence (P08581 25-932) above
From the text: cMET-specific scFv antibodies were isolated from a large naïve human scFv phage display library in a series of repeated panning selection cycles on recombinant mammalian expressed biotinylated monomeric human cMET (MedImmune) essentially as described (Vaughan, 1996). ScFvs from the round 2 of the selection output were expressed in the bacterial periplasm and screened for their ability to inhibit the binding of the human cMET receptor with the HGF ligand in a HGF:cMET HTRF® (Homogeneous Time-Resolved Fluorescence) ligand receptor inhibitory binding assay. […] Unique genes were then converted to human immunoglobulin G2 (IgG2) antibodies and produced in mammalian cells essentially as described (Persic; 1997). The purified antibodies were then ranked based on their inhibitory effect in the HGF:cMET HTRF® binding assay.
To minimize potential immunogenicity, non-Vernier framework residues (Foote and Winter 1992) in the variable framework regions of 0021U3-B09 were targeted specifically and altered to match the closest human germline sequence. In the VH region, seven amino acid residues were mutated to match the reference human germline sequence IGHV1-8*01. In the VL region, three residues were mutated to match the reference human germline sequence IGKV1-5*03. All residues in VH and VL regions were successfully changed to the germline residues without loss of activity. […]

[13] = system: Cynomolgus monkey EGFR; assay: ELISA species cross reactivity; type: binding
Protocol: as §2, §3

[14] = molecular target: T1, Human EGFR; assay: ELISA species cross reactivity; type: binding; settings: antibody 10 to 0.002 μg/mL
Protocol: as §2, §3

[15] = molecular target: T3, Mouse EGFR; assay: ELISA species cross reactivity; type: binding
Protocol: as §2, §3

[16] = molecular target: HER2 (Homo sapiens, UniProt P04626); assay: ELISA family specificity; type: binding
Protocol: as §2

[17] = molecular target: HER3 (Homo sapiens, UniProt P21860); assay: ELISA family specificity; type: binding
Protocol: as §2

[18] = molecular target: HER4 (Homo sapiens, UniProt Q15303); assay: ELISA family specificity; type: binding
Sequence of HER4 (Q15303 26-1308, species assumed): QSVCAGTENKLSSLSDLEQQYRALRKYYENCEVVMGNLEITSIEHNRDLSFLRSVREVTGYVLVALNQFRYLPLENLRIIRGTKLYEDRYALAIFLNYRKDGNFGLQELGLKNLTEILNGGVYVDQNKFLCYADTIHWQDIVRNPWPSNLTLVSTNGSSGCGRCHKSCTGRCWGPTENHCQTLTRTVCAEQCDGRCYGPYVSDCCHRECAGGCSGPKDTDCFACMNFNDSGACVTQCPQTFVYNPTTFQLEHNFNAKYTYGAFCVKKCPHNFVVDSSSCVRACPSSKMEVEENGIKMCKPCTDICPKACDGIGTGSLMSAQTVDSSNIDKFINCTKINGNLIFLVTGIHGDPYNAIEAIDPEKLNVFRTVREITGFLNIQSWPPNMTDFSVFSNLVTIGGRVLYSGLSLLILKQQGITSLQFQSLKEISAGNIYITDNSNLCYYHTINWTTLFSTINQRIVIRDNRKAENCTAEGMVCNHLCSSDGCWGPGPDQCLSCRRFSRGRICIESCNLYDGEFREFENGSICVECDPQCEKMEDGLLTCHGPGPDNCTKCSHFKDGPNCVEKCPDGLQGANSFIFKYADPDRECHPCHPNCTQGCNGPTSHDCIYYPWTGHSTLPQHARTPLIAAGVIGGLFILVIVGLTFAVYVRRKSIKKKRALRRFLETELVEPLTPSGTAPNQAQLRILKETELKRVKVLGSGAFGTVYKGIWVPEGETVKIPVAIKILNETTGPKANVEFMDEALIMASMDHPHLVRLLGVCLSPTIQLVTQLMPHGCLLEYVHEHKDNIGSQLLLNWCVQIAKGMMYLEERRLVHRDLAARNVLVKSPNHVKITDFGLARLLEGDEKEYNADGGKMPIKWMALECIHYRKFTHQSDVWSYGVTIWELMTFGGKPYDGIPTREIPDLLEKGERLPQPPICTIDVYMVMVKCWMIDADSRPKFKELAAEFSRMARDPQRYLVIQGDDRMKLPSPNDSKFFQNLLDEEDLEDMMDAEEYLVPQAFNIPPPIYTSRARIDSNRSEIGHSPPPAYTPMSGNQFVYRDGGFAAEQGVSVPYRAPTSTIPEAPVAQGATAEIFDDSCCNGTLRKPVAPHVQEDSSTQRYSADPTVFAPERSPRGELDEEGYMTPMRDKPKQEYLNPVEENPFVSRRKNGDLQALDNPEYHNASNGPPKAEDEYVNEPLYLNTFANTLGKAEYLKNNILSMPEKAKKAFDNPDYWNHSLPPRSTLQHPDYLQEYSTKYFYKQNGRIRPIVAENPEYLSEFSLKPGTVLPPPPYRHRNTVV
Protocol: as §2

**Q.** Which luminescent signal [1] does the source give for `Nc1ccn([C@@H]2O[C@H](CO)[C@@H](O)C2(F)F)c(=O)n1` [Gemcitabine] here?
**A.** Its luminescent signal is “initial reduction in the luminescent signal reaching a nadir around day 21, after which the signal increased over time”.

B1: B09-57 IgG: affinity optimized, germlined anti-cMET antibody derived from 0021U3-B09, VH SEQ ID NO: 38, VL SEQ ID NO: 40 (antibody, V domains shown)
VH: QVQLVQSGAEVKKPGASVKVSCKASGYTFTDYYIHWVRQATGQGLEWMGWMNPNSGNTGYAQKFQGRVTMTRDTSISTAYMELSSLRSEDTAVYYCARGQGYTHSWGQGTMVTVSS
VL: DIQMTQSPSTLSASVGDRVTITCRASEGIYHWLAWYQQKPGKAPKLLIYKASSLASGVPSRFSGSGSGTEFTLTISSLQPDDFATYYCQQYSNYPPTFGGGTKLEIK
**Q.** Which results are given for B1?
**A.** KD ([2]; koff/kon): No binding detected at 200 nM; Koff ([3]; 25° C.): 0.00194 s⁻¹; Kon ([3]; 25° C.): 1.04e+06 M⁻¹ s⁻¹; KD ([4]; KD calculated as koff/kon): No binding detected at 200 nM; Koff ([5]; 25° C.): 0.000882 s⁻¹; Kon ([5]; 25° C.): 563000 M⁻¹ s⁻¹; KD ([6]; koff/kon): No binding detected at 200 nM; KD [7]: No binding detected at 200 nM; ELISA binding [8]: comparable binding; ELISA binding [9]: comparable binding; ELISA binding [10]: no binding; ELISA binding [11]: no binding; rank by inhibitory effect in the HGF:cMET HTRF binding assay [12]: most potent antibody

B2: RAA22 IgG: low affinity anti-EGFR IgG1 antibody clone, VH SEQ ID NO: 16, VL SEQ ID NO: 20 (antibody, V domains shown)
VH: QVQLVQSGAEVKKPGSSVKVSCKASGGTFSDNDFSWVRQAPGQGLEWMGAIVAVFRTETYAQKFQDRVKITADISTRTTYMELSSLRSEDTAVYYCARRLMSAISGPGAPLLMWGQGTLVTVSS
VL: QSALTQPRSVSGSPGQSVTISCTGTSSDVGGYNYVSWYQQHPGKAPKLMIYDVSKRPSGVPDRFSGSKSGNTASLTISGLQAEDEADYYCSSYTSSDTLEIFGGGTKLTVL
**Q.** Which results are given for B2?
**A.** Koff ([2]; 25° C.): 0.00601 s⁻¹; Kon ([2]; 25° C.): 35400 M⁻¹ s⁻¹; KD ([3]; koff/kon): No binding detected at 200 nM; Koff ([4]; 25° C.): 0.00206 s⁻¹; Kon ([4]; 25° C., 1:1 binding model): 44100 M⁻¹ s⁻¹; KD ([5]; koff/kon): No binding detected at 200 nM; Koff ([6]; 25° C.): 0.019 s⁻¹; Kon ([6]; 25° C.): 40300 M⁻¹ s⁻¹; KD [7]: No binding detected at 200 nM; ELISA binding [13]: bound more weakly; ELISA binding [14]: bound more weakly; ELISA binding [15]: weak, but detectable; ELISA binding [16]: no binding; ELISA binding [17]: no binding; ELISA binding [18]: no binding
